Experiment: soluble on expression in E. coli; label from the status in PepcDB or PDB records

Sequence	soluble on expression in E. coli
MANSLAIIADPKTGKTYKREIPSERMSSLIGRKIGEEVDGVFFDLVGYKMKITGGSSVDGFAMRPDLQTQGKKQILVKYTSGYRGKNGIRKRITARGSIIGSDITQINLKITQYGPTLEHHHHHH	not soluble
MLFSMESILSSTKPKLEPPPKLEPEVTINEQVVDLPRSNTRLSEPSTSASVLEHDLKFGESRKRSRSLGDEPTEDEDGVPVRKANKRNHSTSSAADSSSDDAKDDDDDDDSTSRKSMSGHRKSSHAKPPYSYIALIAMSILNSPEKKLTLSEICEFIINKFEYYKEKFPAWQNSIRHNLSLNDCFVKVARGPGNPGKGNYWALDPNCEDMFDNGSFLRRRKRYKKNSDTYHEMMSHHPMPFPPFLPQGMPFPPRMMHPMANIPMLGHPMNPRAVPNMPAFFIPQNIDSQKLLSMMASRIMPMDAPVSSGQKRTSSSSSPNENGSSAVSDKLSA	soluble
MKIFIVGSTGRVGKSLLKSLSTTDYQIYAGARKVEQVPQYNNVKAVHFDVDWTPEEMAKQLHGMDAIINVSGSGGKSLLKVDLYGAVKLMQAAEKAEVKRFILLSTIFSLQPEKWIGAGFDALKDYYIAKHFADLYLTKETNLDYTIIQPGALTEEEATGLIDINDEVSASNTIGDVADTIKELVMTDHSIGKVISMHNGKTAIKEALESLLEHHHHHH	soluble
MGEQPIFTTRAHVFQIDPSTKKNWVPASKQAVTVSYFYDVTRNSYRIISVDGAKVIINSTITPNMTFTKTSQKFGQWADSRANTVFGLGFSSELQLTKFAEKFQEVREAAR	soluble
DDSLGEAVTTRAEALTIPAVLRARNLLSTTVARTPLVCDGTLPPFVPVAAPPGAATMQTPFHRMLATADDLLFNGVACWALDRDESGTCIGAIHIPLDTWQIEENTVRVNGKAVDPMEVCIFVGIHGGLLTHASETFTDARNLVRAAARVAQNPAALIELRQTNNAQLSPDDVDRIINGYVAARRGRNSGVGFSSSGLEVHEHEMAKENLLIEGRNAAAVDVARAMNVPAAFIDATVGGTSLSYQNAASRMIELVTFGVEPLMSAIEARLNQPDMHADHLANPLKFDPAALLDAIPTTPTIGAQPHGENS	soluble
MGSDKIHHHHHHMLTSVFGISIKYEAWNHQDSLPVYIAGSYDFHTAYIGNRRCIMLAPTEELATLPALKKQIVKIQQIDNVPVVFELTTVSNYRRKSLIENNIPFITDKQVFLPFIGTMLSDEKEPQKLTGKFVYSTQQLFLFYLYSKKKRLYTSEAGKVLPFTAMTLTRAVKQLETTDLFLVAKDGVNKFIESKYKRDELFEKAKVYLTTPVRKTGYIDKTQVTENMVFAGETALSEKTMLNPSRVVTYAISEKDYDKSLLTDELIDPDKQVRLELWAYNPKQFSEDNSADDISLVLSFKDTNDERIEEAVDELQERRLHE	not soluble
MGSDKIHHHHHHMHYQFFATCPRGLEPLLEDELNSIRARQIKPTDGGVGFAGDMLLCYRANLESRIATRILLQVGKGRYSNEDELYQGAYKIDWVQWFEVEQDFMVKVTGVRCPLKSLEFATLRIKDAICDRFREEVGSRPSIDTREPDVRVHAYLGAEEYQLYVDTSGNALYQRGLRRASIEAPLRENLAAGILKLSGWQPGTPLLDPMCGSGTFLLEAAMISLDIAPGSNRSFGFERLKNFNAGAWQSLLKQAKSRAKPVAFQGIYGSDADLRAVRITRKNLEQAGLLDAMQVAHREFTDVVPPAAEGILVANPPYGVRIGEDEELAALYPKMGEALKKKFAGWNAYFLTNDMRLPKLMRLSPTKRTPLFNGPLECRVFEIKMVAGSNRKEKSND	not soluble
MTYTTAKAAEKIGISAHTLRFYDKEGLLPNIGRDEYGNRCFTDNDLQWLGLLQCLKNTGMSLKDIKRFAECTVIGDDTIEERLSLFENQIENVKCQIAELKRYLDLLEYKLAFYQKAKALGSVKAVNLPQIPETA	soluble
MFRIGQGFDVHQLVEGRPLIIGGIEIPYEKGLLGHSDADVLLHTVADACLGAVGEGDIGKHFPDTDPEFKDADSFKLLQHVWGIVKQKGYVLGNIDCTIIAQKPKMLPYIEDMRKRIAEGLEADVSQVNVKATTTEKLGFTGRAEGIAAQATVLIQKG	not soluble
MSLKIAILCASGKVGKEISKEALKRNLEPVCFVRNSSKMNEFLPQAKIVQRDLFELDSKDLIDFDIIIDAFGEWENLSLHKKHIECLSVILQGSKAKLFVVGGAGSLYMDENHTTRLMDMPDFPKEYLDIAKASAEVLEFLRNEKGFKWVYVSPSAIFSPDLPKSNHYKIIGEKFEVNANNESKISYSDYASAMIDIVLNSCYENTRIGVISLEGHHHHHH	soluble
MGSDKIHHHHHHAEDMVKPIENDKDAPGTVQDVKTESLPGAVKFTYTLPSDPDLLYVLAKYTNKTGKVMEFRSSFYTNSVTVEGFGDTDTYKVELYTVDRSENRSQPQIVEVVPLTPPILSCYESLSMVSDFGGMTFEMDNKFKSDLAIYVCTPDELGDMVLAETFYSAREEIVYSVRGYDAVPRRFGIFLQDKYGNETDTLFTELTPIYERELDKTKFREMYLQNDSRVDSYDGKMEYVWNGRISKDGDSGGVGLHTGTGTKDGPAVFTFDLGVLAKLSRFALWAIQDEKHFYNDMSPRRYEVWGCATEPNPDGSWDQWVKLLDMENVKPSGSPIGILTEDDIEAAKIGDQANVPLDMPRVRYIRIKCLKNWSNNYNICFTELTFWGNDNEE	not soluble
GMQTLNDIYLAYLDSLNHQAFDELGTFVDDNVEHNGRPFGLSGYRDMLVKDFADIPDLRFEAEILVSDATRLAARLFFDCTPKSIFMDLPVNGRRVQFCEHVFYDFEQAKIRRVWSVLDKVAIERQLG	soluble
MGSDKIHHHHHHMAELQEVQITEEKPLLPGQTPETAKEAELAARILLDQGQTHSVETPYGSVTFTVYGTPKPKRPAIFTYHDVGLNYKSCFQPLFRFGDMQEIIQNFVRVHVDAPGMEEGAPVFPLGYQYPSLDQLADMIPCILQYLNFSTIIGVGVGAGAYILSRYALNHPDTVEGLVLINIDPNAKGWMDWAAHKLTGLTSSIPDMILGHLFSQEELSGNSELIQKYRGIIQHAPNLENIELYWNSYNNRRDLNFERGGETTLKCPVMLVVGDQAPHEDAVVECNSKLDPTQTSFLKMADSGGQPQLTQPGKLTEAFKYFLQG	not soluble
MGSDKIHHHHHHMTTSATKEALFSPDCLEFLAKLASNNERDWFKAHQAEYEAKVRTPALNFIGAMAPHIQQLSPRLTAVPKKVGGSLMRPQRDARFSSDKTPYKVNVGIQFRHFQGKDVHAPGLYLHIANDGCFLGAGIWHPDSKALSQIRSCIDDNPNAYKQALKQLSAAGFAMEGDSLQRPPKGYDKHHPMLDELKRKDFIAIKPLDTQQLFTKDFDTWCAEQFNQVNKLMGYLCFALDLDY	not soluble
SVFDIYKIGVGPSSSHTVGPMKAGKEFIDDLRAMGKLRDITKITVDVYGSLSLTGKGHHTDIAIIMGLAGNSPEKVDIDSIPGFIARVEETERLPVGMHCHTVSFPREGGMNFHKTNLELHENGMQIHAWIDDEKVYSKTYYSIGGGFIVDEENFGK	soluble
MHPVILFDGDCLFCHASAHWIAARDRQAVFRFAAQQSIVGQALLAKQEMSAEDSVVLIENGCCYVKSEAVLRIGRRLAWPWNWLAAAGFLIPRLLRDHMYDAIANRRHRLVPKRDHCQLPSPELRARFLDELPQ	not soluble
MGSDKIHHHHHHMTEEVPSMDTAPSVGDVREYWNRNPLLSHELASPGSPAFFASLDTAKREDSDRFAMDYWEFGQWAGQRVLDIGCGPGWLTVQYARGGAQVDSVDLTPRAVELAQAHLALHGQSATVREGNAEELPFPDDQFDLVAASGVLHHTPDTQATFREAFRVTKPGGQGKITLYRKGILHHPAVFAMTRIAMRLFGVKHPGADLGKNSSDVDDFIRRYDGDGNPVGIGKTDADWAADLAAAGWVVQGHEVHFFPRRFLPCARLIPVWLHEFLDTRLGTMVYFRLRKPIISGK	not soluble
MTRPNDEGDVSSLAYKYETIADSLRQDIKSGKYTPGELMPDQNKLAETFDTTRITIHKAIQLLIIEGMVYSKRGAGTFVRKDFGLTERRQETLVDKPLGTTQTNAGKKVTSKVLELQARLPTKREAEQLLIDEMDPVYVIRRTRYVDGKVWAYEHTIMPTSIVTLTKQVLEGSVYGYLEQHSGKKIAGSHRIISAARVTADDVAAMGATLNDPVLVINQISYMDDGQPFEVSESHFPYETSTVVADVQIH	not soluble
TNLFHTYQYGKETMRGGSELTLKQSGAPTDQVTHENKSGLDKAYITQWSYGIGETWSLLIPDIKGGSSGYLGYDEKVMETVNPSYAQAIARMNRYWGDQP	not soluble
GPLGSGALKWVLCNYDFQARNSSELSVKQRDVLEVLDDSRKWWKVRDPAGQEGYVPYNILTPYPAAAS	soluble
MNKNGFSRCADIYIGRLREEGRYSTAHVYQNALLSFSKFCGVHSVSFRQVTRERLRCYEQHLYECGLKPNTISTYMRMLRSIYNRGVEAGSAPYVHRLFHEVYTGVDVRQKRALPVVALRRLLYEDPQSDRLRRTQAIAALMFQFCGMSFADLSHLEKSALDSNVLRYNRVKTKTPMSVEVLDSAQEMLDQLRNRQSPRPGCPDYLFGILHGDKKRKDERAYREYQSALRRFNYCLKSLAKRLRLNFPVTSYTLRHSWATTAKYRGVPIEMISESLGHKSIKTTQIYLKGFELKERTEVNRMNLSYVKRCGVGQCI	not soluble
GAMDGNMKEVTQLPEPQTASLAELQQMKLFLKLLKKQEKELKELERKGSKRREELLQKYSVLFLEPVYPRGLDSQVVELKERLEMELIHLGEEYHDGIRRRKEQHATEQTAKITELAREKQIAELKALKESSESNIKDIKKKLEAKRLDRIQVMMRSTSDKAAQERLKKEINNSHIQEVVQTIKLLTEKTARYQQKLEEKQAENLRAIQEKEGQLQQEAVAEYEEKLKTLTVEVQEMVKNYMKEVFPDGPE	soluble
MSLKIDFLTLFPEMFEGVLGSSILQKAQEKDAVQFQVVNFREYSDNKHNTVDDYPYGGGAGMVLKPQPVFDAVEDLTSKAAAAPRIILVCPQGERFTQKKAEQLAKEEHLLFICGHYEGYDERIREHLVTDEISIGDFVLTGGELPAMMIADSVVRLLPGVLGKEASHIEDSFSTGLLEHPHYTRPADYKGLKVPETLLSGNHAKIEEWRNKESIRRTYLRRPDLLKDYPLTEQQRKWISEWEKEEGGSHHHHHH	soluble
GSADAPRDRHRTIVVGGDRDYPPYEFIDQNGKPAGYNVELTRAIAEVMGMTVEFRLGAWSEMFSALKSGRVDVLQGISWSEKRARQIDFTPPHTIVYHAIFARRDSPPAAGLEDLRGRKVALHRDGIMHEYLAERGYGKDLVLTPTPADALRLLAAGGCDYAVVAMVPGMYIIRENRLTNLVPVARSIAAQRYGYAVRQGDAELLARFSEGLAILRKTGQYEAIRAKWLGVLEP	soluble
MSEVIQDRRSAVDTARAGHMLERARWAAAAYGEYDAATVEGIVAAVAEAAHAHAERFAADAVAETGMGVVADKVRKNRACSRGIVEYYRGHDYISPRVDPDRKIVELPRPAGVVLALTPTTNPVATVYFKTILALMTRNAVVVAPHPRAARCSAEAARVLAEAAVAAGAPDGVVQVIDEPSIPLVQALMADERTDVIVATGGTAVVRAAYSSGNPALGVGPGNVPVLVDASADVAAAAQRIVDSKAFDNSVLCTNESVLIAEDAVADKLRAALTRAGAHILDEDGARRLRAYMFADGHLNTDVVGRDAAWIAGQAGLRVTPKTRVLIAPFDHVIAEEMLAHEKLSPVLGMTTVADAARGIRAARAVVRIGGAGHSAAIHSENPAVITDFAAQVPVLRVSVNVGNSTGSAGLDTNLAPSMTIGTGFVGRSSIGENLQPHNLVNWTRIAYNSDPGVVMGNFTGIDPWRAPAGPVPAYPRASNDRDGAVIQAAPQRSYQSPSRTTDVNLDALRAELRALVVEELAQLIKR	not soluble
